From US20050112748A1 (published 2005)

Target: T1, N-terminal portion of N-WASP (1st to 275th amino acid residues) fused to the Gal4 activation domain (pACT2) (UniProt Q95107 1-275)
T1 construct: range 1-275; Yeast two-hybrid prey; also called CRIB-motif-containing N-terminal portion of N-WASP; N-WASP CRIB motif
Test: yeast two-hybrid, beta-galactosidase colony-lift filter assay
From the text: The cDNAs encoding the wild-type, constitutively active, and dominant-negative mutants of Cdc42, Tc10, and RhoT were ligated to the Gal4 DNA-binding domain of the pGBT9 vector (Clontech). A cDNA fragment encoding the N-terminal portion of N-WASP (corresponding to 1st to 275th amino acid residues) (EMBO J. 15: 5326-5335 (1996), Nature 391: 93-96 (1998)) was fused to the Gal4 activation domain of pACT2 vector (Clontech) The yeast strain Y190 was sequentially transformed with the bait and prey plasmids. Double transformants were selected on plates of minimal synthetic dropout medium lacking leucine and tryptophan (SD/-Leu/-Trp). The activation of lacz reporter gene was analyzed by β-galactosidase colony-lift filter assay.
Cdc42 generates filopodia through binding to the CRIB motif (J. Biol. Chem. 270: 29071-29074 (1995)) of its target protein N-WASP, which activates Arp2/3-complex- and profilin-mediated actin polymerization (EMBO J. 15: 5326-5335 (1996), Nature 391: 93-96 (1998), Cell 97: 221-231 (1999)). To determine whether Tc10 and RhoT also bound to N-WASP, the yeast two-hybrid interaction assay was performed.

T1 sequence (Q95107 1-275 limits assumed): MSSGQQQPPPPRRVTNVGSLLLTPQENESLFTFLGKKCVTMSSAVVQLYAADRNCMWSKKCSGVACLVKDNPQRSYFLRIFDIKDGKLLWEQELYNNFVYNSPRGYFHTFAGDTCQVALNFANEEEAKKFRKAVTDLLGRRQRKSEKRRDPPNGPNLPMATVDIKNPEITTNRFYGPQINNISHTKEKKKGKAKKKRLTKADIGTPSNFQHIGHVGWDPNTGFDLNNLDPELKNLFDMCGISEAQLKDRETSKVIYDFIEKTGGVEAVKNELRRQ

B1: Dominant-negative mouse RhoT(T35N) fused to the Gal4 DNA-binding domain (pGBT9) (enzyme, not shown: small tags and cut ends)
chain: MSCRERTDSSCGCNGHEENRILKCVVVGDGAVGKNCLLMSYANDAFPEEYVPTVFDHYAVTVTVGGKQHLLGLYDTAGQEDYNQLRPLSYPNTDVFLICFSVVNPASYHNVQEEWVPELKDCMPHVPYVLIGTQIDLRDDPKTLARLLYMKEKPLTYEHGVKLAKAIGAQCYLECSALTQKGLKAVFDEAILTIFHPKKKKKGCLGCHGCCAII
notes: Yeast two-hybrid bait; also called RhoT(T3SN); RhoT DN
- binding result: no binding
